Tests used:
[1] = molecular target: cohesin Trimer (SMC1/SMC3/SCC1);STAG1 (human;human) (UniProt Q14683+Q9UQE7+O60216+Q8WVM7); assay: mass photometry; conditions: typically 150 nM protein + 150 nM DNA, then diluted (10-fold for NIPBL), phosphate buffer (HEPES for MC604 repeat), 50 mM NaCl for ATP …
NIPBL-MAU2 (human) = NIPBL-MAU2 (human) (UniProt Q6KC79+Q9Y6X3); assay: mass photometry; conditions: typically 150 nM protein + 150 nM DNA, then diluted (10-fold for NIPBL), phosphate buffer (HEPES for MC604 repeat), 50 mM NaCl for ATP …
NIPBL (human) = NIPBL (human) (UniProt Q6KC79); assay: mass photometry; conditions: typically 150 nM protein + 150 nM DNA, then diluted (10-fold for NIPBL), phosphate buffer (HEPES for MC604 repeat), 50 mM NaCl for ATP …
STAG1 (human) = molecular target: T1, STAG1 (human) (UniProt Q8WVM7); assay: mass photometry; conditions: typically 150 nM protein + 150 nM DNA, then diluted (10-fold for NIPBL), phosphate buffer (HEPES for MC604 repeat), 50 mM NaCl for ATP …
T1 sequence: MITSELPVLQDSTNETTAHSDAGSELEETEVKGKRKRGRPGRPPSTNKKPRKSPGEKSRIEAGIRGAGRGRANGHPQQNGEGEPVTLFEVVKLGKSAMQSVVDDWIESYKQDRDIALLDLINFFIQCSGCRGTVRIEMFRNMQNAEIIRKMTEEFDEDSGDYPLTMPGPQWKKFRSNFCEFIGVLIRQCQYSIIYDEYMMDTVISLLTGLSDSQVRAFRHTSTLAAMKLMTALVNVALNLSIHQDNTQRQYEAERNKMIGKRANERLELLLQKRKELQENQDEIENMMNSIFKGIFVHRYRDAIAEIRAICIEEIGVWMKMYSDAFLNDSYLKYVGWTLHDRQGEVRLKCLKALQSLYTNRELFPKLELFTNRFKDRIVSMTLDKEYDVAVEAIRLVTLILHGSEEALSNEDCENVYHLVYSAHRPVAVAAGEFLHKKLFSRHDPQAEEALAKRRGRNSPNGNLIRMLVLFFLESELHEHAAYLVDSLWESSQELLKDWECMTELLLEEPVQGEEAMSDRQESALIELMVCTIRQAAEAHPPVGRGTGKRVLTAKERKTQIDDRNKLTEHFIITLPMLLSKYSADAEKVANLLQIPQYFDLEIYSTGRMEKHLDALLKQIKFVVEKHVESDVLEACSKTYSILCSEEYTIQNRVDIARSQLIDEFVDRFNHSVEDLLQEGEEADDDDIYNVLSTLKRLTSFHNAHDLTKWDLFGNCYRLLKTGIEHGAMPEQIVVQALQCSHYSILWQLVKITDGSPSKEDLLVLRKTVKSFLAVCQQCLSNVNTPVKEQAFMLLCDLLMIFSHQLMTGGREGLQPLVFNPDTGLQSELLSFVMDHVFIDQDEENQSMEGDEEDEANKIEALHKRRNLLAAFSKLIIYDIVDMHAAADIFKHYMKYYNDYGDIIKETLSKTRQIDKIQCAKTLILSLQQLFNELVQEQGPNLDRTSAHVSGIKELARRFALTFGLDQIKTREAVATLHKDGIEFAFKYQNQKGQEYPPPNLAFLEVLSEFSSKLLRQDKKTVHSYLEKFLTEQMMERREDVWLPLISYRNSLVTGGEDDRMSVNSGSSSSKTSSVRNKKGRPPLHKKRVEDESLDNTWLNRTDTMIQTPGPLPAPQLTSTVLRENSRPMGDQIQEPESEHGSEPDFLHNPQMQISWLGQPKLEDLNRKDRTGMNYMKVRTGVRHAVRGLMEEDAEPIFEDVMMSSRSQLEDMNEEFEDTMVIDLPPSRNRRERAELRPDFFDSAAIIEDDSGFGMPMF

[2] = molecular target: SMC1/SMC3/SCC1 cohesin Trimer (UniProt Q14683); assay: mass photometry; in solution; two components mixed and equilibrated: 150 nM cohesin Trimer sample with 150 nM NIPBL, or with 150 nM or 80 nM STAG1 (total protein concentrations); KD from individual mass distributions; ATP is said not to affect these 1:1 interactions
SMC1/SMC3/SCC1 cohesin Trimer, sequence (Q14683 whole entry, chain 1 of 3): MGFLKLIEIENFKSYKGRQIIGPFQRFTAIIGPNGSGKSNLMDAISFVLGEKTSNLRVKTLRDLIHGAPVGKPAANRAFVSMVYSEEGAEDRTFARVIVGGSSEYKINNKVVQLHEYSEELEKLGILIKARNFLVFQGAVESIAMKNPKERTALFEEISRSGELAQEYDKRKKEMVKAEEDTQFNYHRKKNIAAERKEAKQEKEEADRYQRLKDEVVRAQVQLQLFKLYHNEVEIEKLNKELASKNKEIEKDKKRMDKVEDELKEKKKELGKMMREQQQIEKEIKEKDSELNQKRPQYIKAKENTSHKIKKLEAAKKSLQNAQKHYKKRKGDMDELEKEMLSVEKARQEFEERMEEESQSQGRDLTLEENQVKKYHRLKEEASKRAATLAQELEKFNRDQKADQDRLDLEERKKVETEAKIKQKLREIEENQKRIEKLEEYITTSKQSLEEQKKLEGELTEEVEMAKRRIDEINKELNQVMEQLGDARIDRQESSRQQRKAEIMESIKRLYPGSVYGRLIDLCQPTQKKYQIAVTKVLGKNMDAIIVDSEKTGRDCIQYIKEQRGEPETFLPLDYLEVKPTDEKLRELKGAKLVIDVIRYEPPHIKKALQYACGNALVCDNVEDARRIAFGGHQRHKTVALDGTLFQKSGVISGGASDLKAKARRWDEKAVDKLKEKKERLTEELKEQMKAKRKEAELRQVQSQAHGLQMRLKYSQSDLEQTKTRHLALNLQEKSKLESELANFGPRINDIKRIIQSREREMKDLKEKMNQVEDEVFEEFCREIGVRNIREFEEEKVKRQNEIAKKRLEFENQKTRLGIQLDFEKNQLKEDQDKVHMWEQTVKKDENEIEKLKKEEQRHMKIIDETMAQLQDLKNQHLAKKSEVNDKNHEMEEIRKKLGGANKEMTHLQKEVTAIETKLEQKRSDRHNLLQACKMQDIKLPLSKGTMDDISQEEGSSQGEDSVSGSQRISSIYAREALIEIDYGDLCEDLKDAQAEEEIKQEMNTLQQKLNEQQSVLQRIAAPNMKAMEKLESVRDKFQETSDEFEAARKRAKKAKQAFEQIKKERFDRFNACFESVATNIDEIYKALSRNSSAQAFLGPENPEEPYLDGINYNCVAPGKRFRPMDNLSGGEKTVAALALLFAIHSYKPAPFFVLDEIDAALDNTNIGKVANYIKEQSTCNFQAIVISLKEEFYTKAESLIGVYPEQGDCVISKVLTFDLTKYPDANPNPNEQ
SMC1/SMC3/SCC1 cohesin Trimer, sequence (chain, as listed by the source, chain 2 of 3): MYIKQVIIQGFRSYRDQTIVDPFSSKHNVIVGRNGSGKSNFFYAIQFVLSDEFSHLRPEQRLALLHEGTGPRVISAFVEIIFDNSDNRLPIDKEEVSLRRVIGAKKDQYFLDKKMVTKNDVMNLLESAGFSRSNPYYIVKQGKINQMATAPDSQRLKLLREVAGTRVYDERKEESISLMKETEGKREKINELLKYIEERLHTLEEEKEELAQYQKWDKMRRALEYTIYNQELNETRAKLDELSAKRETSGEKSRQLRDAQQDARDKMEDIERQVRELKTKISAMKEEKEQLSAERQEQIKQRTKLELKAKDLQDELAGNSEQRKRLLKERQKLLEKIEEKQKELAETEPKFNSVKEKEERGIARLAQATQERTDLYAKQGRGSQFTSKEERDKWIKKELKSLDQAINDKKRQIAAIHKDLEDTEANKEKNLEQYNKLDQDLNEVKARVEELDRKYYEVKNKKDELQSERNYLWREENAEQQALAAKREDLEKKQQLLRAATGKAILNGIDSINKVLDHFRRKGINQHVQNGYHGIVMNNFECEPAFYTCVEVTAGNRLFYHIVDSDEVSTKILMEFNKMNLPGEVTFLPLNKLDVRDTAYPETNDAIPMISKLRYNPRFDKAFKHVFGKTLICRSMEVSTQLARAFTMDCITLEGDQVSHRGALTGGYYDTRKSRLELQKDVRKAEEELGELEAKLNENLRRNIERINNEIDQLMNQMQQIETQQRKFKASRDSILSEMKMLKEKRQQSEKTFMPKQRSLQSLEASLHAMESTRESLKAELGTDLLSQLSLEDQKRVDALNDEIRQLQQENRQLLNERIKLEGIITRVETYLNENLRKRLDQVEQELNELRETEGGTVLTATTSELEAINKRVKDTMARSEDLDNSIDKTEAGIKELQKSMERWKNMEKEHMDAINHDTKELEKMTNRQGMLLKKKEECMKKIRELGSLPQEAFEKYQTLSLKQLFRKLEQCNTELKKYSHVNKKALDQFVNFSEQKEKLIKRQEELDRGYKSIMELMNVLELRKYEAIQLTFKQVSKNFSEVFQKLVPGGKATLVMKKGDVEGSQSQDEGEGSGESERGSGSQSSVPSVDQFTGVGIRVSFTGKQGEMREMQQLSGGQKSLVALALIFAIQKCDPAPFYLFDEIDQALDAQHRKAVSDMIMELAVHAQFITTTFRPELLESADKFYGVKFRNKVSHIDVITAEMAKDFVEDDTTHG
SMC1/SMC3/SCC1 cohesin Trimer, sequence (chain, as listed by the source, chain 3 of 3): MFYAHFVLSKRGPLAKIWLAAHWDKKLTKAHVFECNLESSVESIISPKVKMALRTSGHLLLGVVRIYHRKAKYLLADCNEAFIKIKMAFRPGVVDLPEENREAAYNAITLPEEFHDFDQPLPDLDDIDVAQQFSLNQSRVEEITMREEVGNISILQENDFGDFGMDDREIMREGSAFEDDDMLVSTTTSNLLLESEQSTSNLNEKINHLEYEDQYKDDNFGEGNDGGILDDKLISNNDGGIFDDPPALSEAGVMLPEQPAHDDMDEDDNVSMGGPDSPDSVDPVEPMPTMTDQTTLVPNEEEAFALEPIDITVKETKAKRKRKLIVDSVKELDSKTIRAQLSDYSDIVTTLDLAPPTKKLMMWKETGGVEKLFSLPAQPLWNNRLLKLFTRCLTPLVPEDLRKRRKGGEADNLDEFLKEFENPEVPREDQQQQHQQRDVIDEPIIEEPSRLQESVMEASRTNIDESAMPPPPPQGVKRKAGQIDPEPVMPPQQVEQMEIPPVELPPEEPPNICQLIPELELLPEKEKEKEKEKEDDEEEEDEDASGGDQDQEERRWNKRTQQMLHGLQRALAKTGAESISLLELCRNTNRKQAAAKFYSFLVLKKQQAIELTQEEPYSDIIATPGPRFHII

cohesin Trimer (SMC1/SMC3/SCC1);STAG1 (human;human), sequence (Q14683 whole entry, chain 1 of 3): as the sequence (Q14683 whole entry, chain 1 of 3) above
cohesin Trimer (SMC1/SMC3/SCC1);STAG1 (human;human), sequence (Q9UQE7 whole entry, chain 2 of 3): as the sequence (chain, as listed by the source, chain 2 of 3) above
cohesin Trimer (SMC1/SMC3/SCC1);STAG1 (human;human), sequence (O60216 whole entry, chain 3 of 3): as the sequence (chain, as listed by the source, chain 3 of 3) above

Row | Kd [2] [nM] | Substance | Kd [1] [nM] | Kd (NIPBL-MAU2 (human)) [nM] | Kd (NIPBL (human)) [nM] | Kd (STAG1 (human)) [nM]
1 | – | CATATGTGCAGTCCCCCCATAAAAAAACCCGCCGAAGCGGGTTTTTACGTTATTTGCGGATTTTAATTAACTAGTTCTAGAGCTCACGTGCAGCTGTCGACGGTACCTGCAGGCCGGCCAGTACTGGGCCCCAACAGATAAAACGAAAGGCCCAGTCTTTCGACTGAGCCTTTCGTTTTATTGGGCCCCCTTGGTCAAATTGGGTATACCCATTTGGGCCTGGTCTGGCCGGCATGGCGCATTACAGCGGTACGCAATTTAAATGCGCCTAGCGCATTTTCCCGACCTTAATGCGCCTCGCG (double strand) [MC302 supercoiled minicircle] | 169 | 12.2 | < 10 | 1350
2 | 20 | NIPBL, Q6KC79 1-2804 | – | – | – | –

Reference: PMC12358912
